{"source": "the RNAGym collection of RNA variant scans (doi:10.1093/nar/gkz1192)", "parents": {"B1": {"name": "CPEB3 Ribozyme (parent)", "chain": "UAACAGGGGGCCACAGCAGAAGCGUUCACGUCGCAGCCCCUGUCAGAUUCUGGUGAAUCUGCGAAUUCUGCUGUAUAUCUC"}}, "data": [{"variants_of": "B1", "experiment": "self-cleavage, relative activity (ratio to wild type); higher = more cleavage; in vitro, sequencing", "method_in_brief": "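Barcoded CPEB3 ribozyme mutants, produced by rounds of error-prone PCR, self-cleaved while being transcribed with T7 RNA polymerase for 5 hours at 37°C and during a subsequent 15 min DNase I step before EDTA was added. Sequencing of template-switched cDNA on Illumina gave cleaved and total reads, and DNA sequencing assigned barcodes to variants. Each variant's relative activity is its cleaved/total read fraction divided by the unmutated ribozyme's fraction, averaged across three batches. A variant needed a minimum of 5 reads.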", "values": [{"variant": "U48C U58G", "self-cleavage": 0.25}, {"variant": "U48C U58A", "self-cleavage": 0.23}, {"variant": "U48C U58C", "self-cleavage": 0.34}, {"variant": "U48A U51C", "self-cleavage": 0.44}, {"variant": "U48C U74A", "self-cleavage": 0.88}, {"variant": "U48C U74C", "self-cleavage": 1.02}, {"variant": "U48C U74G", "self-cleavage": 1.02}, {"variant": "U49C G53C", "self-cleavage": 0.44}, {"variant": "U49C G53A", "self-cleavage": 0.52}, {"variant": "U48G U76A", "self-cleavage": 0.43}, {"variant": "U49C G63A", "self-cleavage": 0.39}, {"variant": "U49C G63U", "self-cleavage": 0.35}, {"variant": "U48A A56C", "self-cleavage": 0.26}, {"variant": "U48A A56U", "self-cleavage": 0.31}, {"variant": "U48A A56G", "self-cleavage": 0.33}, {"variant": "U48C C68A", "self-cleavage": 0.34}, {"variant": "U48C C68G", "self-cleavage": 0.18}, {"variant": "U49C G70A", "self-cleavage": 0.44}, {"variant": "U49C G70U", "self-cleavage": 0.2}, {"variant": "U48C U72A", "self-cleavage": 0.4}, {"variant": "U48C U72C", "self-cleavage": 0.7}, {"variant": "U49C A77U", "self-cleavage": 0.37}, {"variant": "U49C A77G", "self-cleavage": 0.45}, {"variant": "U48A U76C", "self-cleavage": 0.67}, {"variant": "U48A U76A", "self-cleavage": 0.5}, {"variant": "U49C A57G", "self-cleavage": 0.35}, {"variant": "U49C A57U", "self-cleavage": 0.33}, {"variant": "U49C U60A", "self-cleavage": 0.22}, {"variant": "U49C U60C", "self-cleavage": 0.22}, {"variant": "U49C U60G", "self-cleavage": 0.13}, {"variant": "U49A G61C", "self-cleavage": 0.19}, {"variant": "U49A A57U", "self-cleavage": 0.4}, {"variant": "U49A A57G", "self-cleavage": 0.5}, {"variant": "U49A G55C", "self-cleavage": 0.62}, {"variant": "U49A G55A", "self-cleavage": 0.78}, {"variant": "U48A U66C", "self-cleavage": 0.16}, {"variant": "U48A U66G", "self-cleavage": 0.43}, {"variant": "U48A U66A", "self-cleavage": 0.36}, {"variant": "U49C C50U", "self-cleavage": 0.87}, {"variant": "U49C C50G", "self-cleavage": 0.82}, {"variant": "U49C C50A", "self-cleavage": 0.78}, {"variant": "A47U U80G", "self-cleavage": 0.8}, {"variant": "A47U U80A", "self-cleavage": 0.51}, {"variant": "A47U U80C", "self-cleavage": 0.66}, {"variant": "U48C A75C", "self-cleavage": 1.07}, {"variant": "U48C A75U", "self-cleavage": 0.71}, {"variant": "U48C A75G", "self-cleavage": 0.43}, {"variant": "U48A A57U", "self-cleavage": 1.09}, {"variant": "U48A A57G", "self-cleavage": 0.47}, {"variant": "A47U G55U", "self-cleavage": 0.26}, {"variant": "U49C A64G", "self-cleavage": 0.27}, {"variant": "U49C A64U", "self-cleavage": 0.24}, {"variant": "U49C A64C", "self-cleavage": 0.26}, {"variant": "U49A U51A", "self-cleavage": 0.45}, {"variant": "U49A U51C", "self-cleavage": 0.66}, {"variant": "A47U U58C", "self-cleavage": 0.39}, {"variant": "U48C A64U", "self-cleavage": 0.27}, {"variant": "U48C A64C", "self-cleavage": 0.18}, {"variant": "U48C A64G", "self-cleavage": 0.41}, {"variant": "U49C C79U", "self-cleavage": 0.76}, {"variant": "U48C G55A", "self-cleavage": 0.32}, {"variant": "U48C G55C", "self-cleavage": 0.36}, {"variant": "A47U C59U", "self-cleavage": 0.2}, {"variant": "U49C U69C", "self-cleavage": 0.31}, {"variant": "U49C U69G", "self-cleavage": 0.25}, {"variant": "U49C U69A", "self-cleavage": 0.25}, {"variant": "U49A A75G", "self-cleavage": 0.39}, {"variant": "U49A A75U", "self-cleavage": 0.64}, {"variant": "U49A C62A", "self-cleavage": 0.26}, {"variant": "U49A C62U", "self-cleavage": 0.44}, {"variant": "A47U U72C", "self-cleavage": 0.53}, {"variant": "A47U U72A", "self-cleavage": 0.35}, {"variant": "U49C U72G", "self-cleavage": 0.26}, {"variant": "U49C U72A", "self-cleavage": 0.26}, {"variant": "U49C U72C", "self-cleavage": 0.36}, {"variant": "U49C C59U", "self-cleavage": 0.09}, {"variant": "U49C C59A", "self-cleavage": 0.09}, {"variant": "U48A A65G", "self-cleavage": 0.4}, {"variant": "U48A A65U", "self-cleavage": 0.15}, {"variant": "U48C A77U", "self-cleavage": 0.65}, {"variant": "U48C A77C", "self-cleavage": 0.61}, {"variant": "U48C A77G", "self-cleavage": 0.6}, {"variant": "A47U U76C", "self-cleavage": 0.59}, {"variant": "A47U U76A", "self-cleavage": 0.82}, {"variant": "U49A C71U", "self-cleavage": 0.26}, {"variant": "U49A C71G", "self-cleavage": 0.24}, {"variant": "U49C G55A", "self-cleavage": 0.18}, {"variant": "U49C G55U", "self-cleavage": 0.24}, {"variant": "U49A G73A", "self-cleavage": 1.28}, {"variant": "U49A U60C", "self-cleavage": 0.32}, {"variant": "U49A U60A", "self-cleavage": 0.21}, {"variant": "U49A U58C", "self-cleavage": 0.33}, {"variant": "U49A U58A", "self-cleavage": 0.21}, {"variant": "U48A A64U", "self-cleavage": 0.14}, {"variant": "U48A A64G", "self-cleavage": 0.26}, {"variant": "A47U C68A", "self-cleavage": 0.25}, {"variant": "U49A U66A", "self-cleavage": 0.24}, {"variant": "U49A U66C", "self-cleavage": 0.38}, {"variant": "U48C A57G", "self-cleavage": 1.11}, {"variant": "U48C A57U", "self-cleavage": 0.58}, {"variant": "U48C A57C", "self-cleavage": 0.5}, {"variant": "U49A G70U", "self-cleavage": 0.24}, {"variant": "U49A G70A", "self-cleavage": 0.49}, {"variant": "U48G U60G", "self-cleavage": 0.22}, {"variant": "U48G A75G", "self-cleavage": 0.3}, {"variant": "A47U U78A", "self-cleavage": 0.7}, {"variant": "A47U U78C", "self-cleavage": 0.57}, {"variant": "U48G A57G", "self-cleavage": 0.4}, {"variant": "U48G A57U", "self-cleavage": 1.07}, {"variant": "U48G A57C", "self-cleavage": 1.11}, {"variant": "U48C C79G", "self-cleavage": 0.74}, {"variant": "U48C C79U", "self-cleavage": 0.88}, {"variant": "U48C C79A", "self-cleavage": 0.89}, {"variant": "U49C G73A", "self-cleavage": 0.73}, {"variant": "U49C G73U", "self-cleavage": 0.77}, {"variant": "A47U U67A", "self-cleavage": 0.33}, {"variant": "A47U U67C", "self-cleavage": 0.3}, {"variant": "U48A A77G", "self-cleavage": 0.54}, {"variant": "U49C A56C", "self-cleavage": 0.42}, {"variant": "U49C A56U", "self-cleavage": 0.48}, {"variant": "U49C A56G", "self-cleavage": 1.04}, {"variant": "U49A U69C", "self-cleavage": 0.44}, {"variant": "U49A U69A", "self-cleavage": 0.34}, {"variant": "U49A U69G", "self-cleavage": 0.61}, {"variant": "U48C U78A", "self-cleavage": 0.86}, {"variant": "U48C U78C", "self-cleavage": 0.54}, {"variant": "U48C U78G", "self-cleavage": 0.94}, {"variant": "A47U U69A", "self-cleavage": 0.34}, {"variant": "A47U U69C", "self-cleavage": 0.33}, {"variant": "U49A G53A", "self-cleavage": 0.79}, {"variant": "U49A U76C", "self-cleavage": 0.69}, {"variant": "U48A C71A", "self-cleavage": 0.2}, {"variant": "U48C C50U", "self-cleavage": 0.54}, {"variant": "U48C C50A", "self-cleavage": 0.25}, {"variant": "U49C U51C", "self-cleavage": 0.38}, {"variant": "U49C U51G", "self-cleavage": 0.36}, {"variant": "U49C U51A", "self-cleavage": 0.49}, {"variant": "U49A A77U", "self-cleavage": 0.9}, {"variant": "U49A A77G", "self-cleavage": 0.46}, {"variant": "U49C A65G", "self-cleavage": 0.26}, {"variant": "U49C A65C", "self-cleavage": 0.14}, {"variant": "U49C A65U", "self-cleavage": 0.26}, {"variant": "U49A G52A", "self-cleavage": 0.84}, {"variant": "U48C U69G", "self-cleavage": 0.36}, {"variant": "U48C U69A", "self-cleavage": 0.37}, {"variant": "U48C U69C", "self-cleavage": 0.32}, {"variant": "U48G U72A", "self-cleavage": 0.44}, {"variant": "U48G U72C", "self-cleavage": 0.44}, {"variant": "U48C C59U", "self-cleavage": 0.39}, {"variant": "U48C C59A", "self-cleavage": 0.19}, {"variant": "U49C U67C", "self-cleavage": 0.23}, {"variant": "U49C U67A", "self-cleavage": 0.28}, {"variant": "U49C U67G", "self-cleavage": 0.32}, {"variant": "U48G A65G", "self-cleavage": 0.23}, {"variant": "U48G U49C", "self-cleavage": 0.46}, {"variant": "U48G U49A", "self-cleavage": 0.52}, {"variant": "U48C G70C", "self-cleavage": 0.21}, {"variant": "U48C G70A", "self-cleavage": 0.19}, {"variant": "U48A G55A", "self-cleavage": 0.21}, {"variant": "A47U U60A", "self-cleavage": 0.21}, {"variant": "A47U U60C", "self-cleavage": 0.23}, {"variant": "A47U U60G", "self-cleavage": 0.29}, {"variant": "U48C C81U", "self-cleavage": 1}, {"variant": "U48G U51C", "self-cleavage": 0.53}, {"variant": "U49A A56U", "self-cleavage": 1.19}, {"variant": "U49A A56G", "self-cleavage": 0.59}, {"variant": "U48C U80A", "self-cleavage": 0.68}]}]}
